Numbered stars: 1 amine (or outer) side, 2 acyl side, 3 side chain; on linkers, the order of the positions; unused ones are H or OH. Bridge positions count the residues as written; N and C are the ends. Square brackets hold non-standard residues; d marks the D form. Peptide text beside a SMILES is read from it. Pro(4S-SH) = O=C([C@@H]1C[C@H](S[*:3])CN1[*:1])[*:2]; Trp(6-Cl) = N[C@@H](Cc1c[nH]c2cc(Cl)ccc12)C(=O)O; Oic = O=C(O)[C@@H]1C[C@@H]2CCCC[C@@H]2N1; Gly(octyl) = CCCCCCCC[C@H](N)C(=O)O; Cha = N[C@@H](CC1CCCCC1)C(=O)O

These results are taken from US20170369523A1, “TEMPLATE-FIXED BETA-HAIRPIN PEPTIDOMIMETICS THAT ARE LIGANDS FOR G-PROTEIN-COUPLED RECEPTORS (GPCRS) AND ARE MODULATORS OF TRANSCRIPTION FACTORS AND COACTIVATORS” (POLYPHOR AG, priority 2008, published 2017).

A short description of series [1]: in vitro. The following applies: human. The format is cell-based. On the procedure: (§1) The cytotoxicity of the peptides to HELA cells (Acc57) and COS-7 cells (CRL-1651) was determined using the MTT reduction assay. Briefly, the method was as follows: 7000 HELA cells/well and 4500 COS-7 cells/well were seeded and grown in 96-well microtiter plates for 24 h at 37° C. at 5% CO2. Thereafter, time zero (Tz) was determined by MTT reduction (see below). The supernatant of the remaining wells was discarded, and fresh medium and compounds in serial dilutions (12.5, 25 and 50 μM, triplicates) were pipetted into the wells. After incubation of the cells for 48 h at 37° C. at 5% CO2 the supernatant was discarded again and 100 μL MTT reagent (0.5 mg/mL in RPMI1640 and DMEM, respectively)/well was added. Following incubation at 37° C. for 2 h the media were aspirated and the cells were spiked (100 μl isopropanol/well). The absorbance of the solubilized formazan was measured at 595 nm (OD595peptide). For each concentration averages were calculated from triplicates. The percentage of growth was calculated as follows: (OD595peptide-OD595Tz-OD595Empty well)/(OD595Tz-OD595Empty well)×100%. The GI50 (Growth Inhibition) concentrations were calculated for each peptide by using a trend line function for the concentrations (50, 25, 12.5 and 0 μM), the corresponding percentages and the value 50, (=TREND (C50:C0,%50:%0,50).

A short description of series [2]: in vitro. The format is cell-based. Particulars: African green monkey. On the procedure:
as §1

In series [3] the test system is human red blood cells (hRBC). The format is cell-based. The following applies: red cells of human, 1 h. On the procedure:
The peptides were tested for their hemolytic activity against human red blood cells (hRBC). Fresh hRBC were washed three times with phosphate buffered saline (PBS) and centrifuged for 10 min at 2000×g. Compounds (100 μM) were incubated with 20% hRBC (v/v) for 1 h at 37° C. The final erythrocyte concentration was approximately 0.9×10^9 cells/mL. A value of 0% and 100% cell lyses, respectively, was determined by incubation of hRBC in the presence of PBS alone and 0.1% Triton X-100 in H2O, respectively. The samples were centrifuged, the supernatants were 20-fold diluted in PBS buffer and the optical densities (OD) were measured at 540 nm. The 100% lyses value (OD540H2O) gave an OD540 of approximately 1.3-1.8. Percent hemolysis was calculated as follows: […]

Series [4] in a line: Plasma stability, human plasma. Format: in vitro ADME. Particulars: 37° C., sampled up to 240 min. On the procedure:
(§2) The stability of the peptides in human and mouse plasma was determined by applying the following method: 315 μl/deep well of freshly thawed human plasma (Basler Blutspende-dienst) and mouse plasma (Harlan Sera-Lab, UK), respectively, were spiked with 35 μl/well of compound in PBS (100 μM, triplicate) and incubated at 37° C. At t=0, 15, 30, 60, 120 and 240 min aliquots of 50 μl were transferred to filtration plate wells containing 150 μl/well of acetonitrile. Following shaking for 2 min the occurred suspensions were filtrated by vacuum and finally. 100 μl of each filtrate were transferred to a propylene microtiter plate, and analyzed by LC/MS as follows: Column: Waters, XBridge C18, mobile phases: (A) water+0.1% formic acid and (B) acetonitrile/water, 95/5 (v/v)+0.1% formic acid, gradient: 5%-100% (B) in 2 minutes, electrospray ionization, MRM detection (triple quadrupole). The peak areas were determined and triplicate values were averaged. The stability was expressed in percent of the initial value at t=0. (tx/t0×100). By using the TREND function of EXCEL (Microsoft Office 2003) T1/2 were determined.

Series [5] can be described thus: Plasma stability, mouse plasma. The format is in vitro ADME. Particulars: 37° C., sampled up to 240 min. On the procedure: as §2
Another series concerns the target T1, NCoA-1 (UniProt Q15788 257-385, limits assumed).
T1 construct: also called SRC-1
T1 sequence (looked up): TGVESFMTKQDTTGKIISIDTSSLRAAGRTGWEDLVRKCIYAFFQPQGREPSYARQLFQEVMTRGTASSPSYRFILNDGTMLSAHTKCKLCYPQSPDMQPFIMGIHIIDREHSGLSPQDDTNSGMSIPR
Description: competition fluorescence polarization; displacement of FluoSTAT6 from NCoA-1. On the procedure: The mixtures were shaken thoroughly. Fluorescence polarization was measured on a SPECTRAmax M5 spectrometer (Molecular device) following 5-30 min incubation at room temperature. FluoSTAT6 was excited at 490 nm and emission polarization was detected at 525 nm. 40 intensity measurements were collected for each well, 20 at horizontal position of the dynamic polarizer, 20 at parallel position. As the fraction of FluoSTAT6 bound to NCoA-1 is correlated to the fluorescence polarization (FP), after normalization, the fraction of bound FluoSTAT6 (B) was determined, and the KD was calculated according to B=[(1+P/R+KD/R)−((1+P/R+KD/R)²−4P/R)^{0.5}]/2, wherein P is the total probe concentration, R the total protein concentration and KD the dissociation constant (M. H. Roehrl, J. Y. Wang, G. Wagner, Biochemistry 2004, 3, 16056).
To determine the Kᵢ values of potential inhibitors of the STAT6/NCoA-1 interaction (competition fluorescence polarization) the compounds (dilution series from 0 to 100 μM final concentration) dissolved in HEPES buffer (10 mM HEPES, 150 mM NaCl, 3.4 mM EDTA, 0.1% BSA) were dispensed in a black 96 well plate (Greiner) and FluoSTAT6 (200 nM final concentration) in HEPES buffer was added. The mixture was completed by a HEPES buffer solution of NCoA-1 (1 μM final concentration) and processed as described above. STAT6Y (C-terminal tyrosine extended STAT6 794-814 peptide) was used as a positive control. As the total fluorescence intensity of FluoSTAT6 remains similar for all samples, the fraction of peptide bound to NCoA-1 is correlated to the fluorescence polarization.
Following normalization data were fitted with IGORpro Software® (WaveMetrics, Lake Oswego, Oreg., USA) to a sigmoid equation to determine IC₅₀ values.
A general note: Fluorescence polarisation rises when a labelled molecule tumbles more slowly, as on binding a larger partner.

For the molecule `NCCCC[C@@H]1NC(=O)[C@H](Cc2c[nH]c3ccccc23)NC(=O)[C@H](Cc2ccccc2)NC(=O)[C@@H]2CSSC[C@H](NC(=O)[C@H](Cc3ccc(O)cc3)NC1=O)C(=O)N[C@@H](CC1CCCCC1)C(=O)N1CCC[C@@H]1C(=O)N1CCC[C@H]1C(=O)N[C@@H](CC(=O)O)C(=O)N2` [compound 35] (cyclo(DCFWKYC[Cha][dP]P); disulfide 2-7), the GI50 at 48 h in “in vitro [1]” and in the series “in vitro [2]” was > 50 µM in each case. Besides, in series [3], the “Hemolysis at 100 μM [%]” value worked out at 0%. Also, the “Plasmastability human pl. T1/2” value in series [4] is 4 h. Besides, the “Plasmastability mouse pl. T1/2” value in series [5] worked out at 4 h.

B1: Ex. 4 (peptide)
peptide: cyclo(FEWL[dA]WEF[dP]P)
SMILES: CC(C)C[C@@H]1NC(=O)[C@H](Cc2c[nH]c3ccccc23)NC(=O)[C@H](CCC(=O)O)NC(=O)[C@H](Cc2ccccc2)NC(=O)[C@@H]2CCCN2C(=O)[C@H]2CCCN2C(=O)[C@H](Cc2ccccc2)NC(=O)[C@H](CCC(=O)O)NC(=O)[C@H](Cc2c[nH]c3ccccc23)NC(=O)[C@@H](C)NC1=O
notes: cyclo(-P1..P8-template-)
Take B1: the affinity with NCoA-1, expressed as Ki, was 15 µM.

B2: Ex. 6 (peptide)
peptide: cyclo(FE[Trp(6-Cl)]LA[Gly(octyl)]EF[dP]P)
SMILES: CCCCCCCC[C@@H]1NC(=O)[C@H](C)NC(=O)[C@H](CC(C)C)NC(=O)[C@H](Cc2c[nH]c3cc(Cl)ccc23)NC(=O)[C@H](CCC(=O)O)NC(=O)[C@H](Cc2ccccc2)NC(=O)[C@@H]2CCCN2C(=O)[C@H]2CCCN2C(=O)[C@H](Cc2ccccc2)NC(=O)[C@H](CCC(=O)O)NC1=O
notes: cyclo(-P1..P8-template-)
As for B2, the Ki (usually the equilibrium dissociation constant of an inhibitor or competing ligand from its target) in the series with NCoA-1 stood at 3.6 µM.

B3: Ex. 25 (peptide)
peptide: cyclo([Cha]EWLAWEF[dP]P)
SMILES: CC(C)C[C@@H]1NC(=O)[C@H](Cc2c[nH]c3ccccc23)NC(=O)[C@H](CCC(=O)O)NC(=O)[C@H](CC2CCCCC2)NC(=O)[C@@H]2CCCN2C(=O)[C@H]2CCCN2C(=O)[C@H](Cc2ccccc2)NC(=O)[C@H](CCC(=O)O)NC(=O)[C@H](Cc2c[nH]c3ccccc23)NC(=O)[C@H](C)NC1=O
notes: cyclo(-P1..P8-template-)
For B3, in the series with NCoA-1, the Ki was 6 µM.

B4: Ex. 26 (peptide)
peptide: cyclo([Cha]EWLAWE[Cha][dP]P)
SMILES: CC(C)C[C@@H]1NC(=O)[C@H](Cc2c[nH]c3ccccc23)NC(=O)[C@H](CCC(=O)O)NC(=O)[C@H](CC2CCCCC2)NC(=O)[C@@H]2CCCN2C(=O)[C@H]2CCCN2C(=O)[C@H](CC2CCCCC2)NC(=O)[C@H](CCC(=O)O)NC(=O)[C@H](Cc2c[nH]c3ccccc23)NC(=O)[C@H](C)NC1=O
notes: cyclo(-P1..P8-template-)
Regarding B4, in the series with NCoA-1, the affinity, expressed as Ki, was 7.7 µM.

B5: Ex. 14 (peptide)
peptide: cyclo(FA[Trp(6-Cl)]LDWEF[dP]P)
SMILES: CC(C)C[C@@H]1NC(=O)[C@H](Cc2c[nH]c3cc(Cl)ccc23)NC(=O)[C@H](C)NC(=O)[C@H](Cc2ccccc2)NC(=O)[C@@H]2CCCN2C(=O)[C@H]2CCCN2C(=O)[C@H](Cc2ccccc2)NC(=O)[C@H](CCC(=O)O)NC(=O)[C@H](Cc2c[nH]c3ccccc23)NC(=O)[C@H](CC(=O)O)NC1=O
notes: cyclo(-P1..P8-template-)
In the series with NCoA-1, B5 had a Ki of 1.4 µM.

B6: Ex. 13 (peptide)
peptide: cyclo(FE[Trp(6-Cl)]LDWAF[dP]P)
SMILES: CC(C)C[C@@H]1NC(=O)[C@H](Cc2c[nH]c3cc(Cl)ccc23)NC(=O)[C@H](CCC(=O)O)NC(=O)[C@H](Cc2ccccc2)NC(=O)[C@@H]2CCCN2C(=O)[C@H]2CCCN2C(=O)[C@H](Cc2ccccc2)NC(=O)[C@H](C)NC(=O)[C@H](Cc2c[nH]c3ccccc23)NC(=O)[C@H](CC(=O)O)NC1=O
notes: cyclo(-P1..P8-template-)
Regarding B6, the inhibitory constant (Ki) with NCoA-1 came out at 2 µM.

B7: Ex. 3 (peptide)
peptide: cyclo(FEWLAWEW[dP][Oic])
SMILES: CC(C)C[C@@H]1NC(=O)[C@H](Cc2c[nH]c3ccccc23)NC(=O)[C@H](CCC(=O)O)NC(=O)[C@H](Cc2ccccc2)NC(=O)[C@@H]2C[C@@H]3CCCC[C@@H]3N2C(=O)[C@H]2CCCN2C(=O)[C@H](Cc2c[nH]c3ccccc23)NC(=O)[C@H](CCC(=O)O)NC(=O)[C@H](Cc2c[nH]c3ccccc23)NC(=O)[C@H](C)NC1=O
notes: cyclo(-P1..P8-template-)
The molecule B7 registered a Ki in the series with NCoA-1 of 6.2 µM.

B8: Ex. 18 (peptide)
peptide: cyclo(FE[Trp(6-Cl)]LDAEF[dP]P)
SMILES: CC(C)C[C@@H]1NC(=O)[C@H](Cc2c[nH]c3cc(Cl)ccc23)NC(=O)[C@H](CCC(=O)O)NC(=O)[C@H](Cc2ccccc2)NC(=O)[C@@H]2CCCN2C(=O)[C@H]2CCCN2C(=O)[C@H](Cc2ccccc2)NC(=O)[C@H](CCC(=O)O)NC(=O)[C@H](C)NC(=O)[C@H](CC(=O)O)NC1=O
notes: cyclo(-P1..P8-template-)
For the molecule B8, in the series with NCoA-1, the Ki was 3.3 µM.

B9: Ex. 1 (peptide)
peptide: cyclo(FE[Trp(6-Cl)]LAWEF[dP]P)
SMILES: CC(C)C[C@@H]1NC(=O)[C@H](Cc2c[nH]c3cc(Cl)ccc23)NC(=O)[C@H](CCC(=O)O)NC(=O)[C@H](Cc2ccccc2)NC(=O)[C@@H]2CCCN2C(=O)[C@H]2CCCN2C(=O)[C@H](Cc2ccccc2)NC(=O)[C@H](CCC(=O)O)NC(=O)[C@H](Cc2c[nH]c3ccccc23)NC(=O)[C@H](C)NC1=O
notes: cyclo(-P1..P8-template-)
In turn, B9 yielded a Ki with NCoA-1 of 0.7 µM.

B10: Ex. 5 (peptide)
peptide: cyclo(FT[Trp(6-Cl)]LAWEF[dP][Pro(4S-SH)])
SMILES: CC(C)C[C@@H]1NC(=O)[C@H](Cc2c[nH]c3cc(Cl)ccc23)NC(=O)[C@H]([C@@H](C)O)NC(=O)[C@H](Cc2ccccc2)NC(=O)[C@@H]2C[C@H](S)CN2C(=O)[C@H]2CCCN2C(=O)[C@H](Cc2ccccc2)NC(=O)[C@H](CCC(=O)O)NC(=O)[C@H](Cc2c[nH]c3ccccc23)NC(=O)[C@H](C)NC1=O
notes: cyclo(-P1..P8-template-)
In the case of B10, in the series with NCoA-1, the Ki was 3.8 µM.
